In the supplement of paper PMC12855868:

B1: library; numbered along this chain (parent)
chain: MAAAGGARLLRAASAVLGGPAGRWLHHAGSRAGSSGLLRNRGPGGSAEASRSLSVSARARSSSEDKITVHFINRDGETLTTKGKVGDSLLDVVVENNLDIDGFGACEGTLACSTCHLIFEDHIYEKLDAITDEENDMLDLAYGLTDRSRLGCQICLTKSMDNMTVRVPETVADARQSIDVGKTS

Variants of: B1
Test: scaled log2 fold change in cell abundance, elesclomol vs control (0 = silent mean, 1 = nonsense mean) (scaled log2 ratio); higher = higher viability under elesclomol (loss of FDX1 cuproptosis function)
Conditions: glucose 10 mM
[1] = with ABC1 FDX1 KO, elesclomol 5 nM, 14 days
[2] = with HEK293T FDX1 KO, elesclomol 40 nM, 11 days
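Note: variant abundance is its share of total variant reads in each endpoint sample, from next-generation sequencing of the integrated ORF PCR-amplified out of genomic DNA.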

MAAAGGARLLRAASAVLGGPAGRWLHHAGSRAGSSGLLRNRGPGGSAEASRSLSVSARARSSSEDKITVHFINRDGETLTTKGKVGDSLLDVVVENNLDIDGFGACEGTLACSTCHLIFEDHIYEKLDAITDEENDMLDLAYGLTDRSRLGCQICLTKSMDNMTVRWPETVADARQSIDVGKTS
scaled log2 fold change [1]: 0.155
scaled log2 fold change [2]: -0.0986

MAAAGGARLLRAASAVLGGPAGRWLHHAGSRAGSSGLLRNRGPGGSAEASRSLSVSARARSSSEDKITVHFINRDGETLTTKGKVGDSLLDVVVENNLDIDGFGACEGTLACSTCHLIFEDHIYEKLDAITDEENDMLDLAYGLTDRSRLGCQICLTKSMDNMTVRYPETVADARQSIDVGKTS
scaled log2 fold change [1]: -0.0283
scaled log2 fold change [2]: 0.556

MAAAGGARLLRAASAVLGGPAGRWLHHAGSRAGSSGLLRNRGPGGSAEASRSLSVSARARSSSEDKITVHFINRDGETLTTKGKVGDSLLDVVVENNLDIDGFGACEGTLACSTCHLIFEDHIYEKLDAITDEENDMLDLAYGLTDRSRLGCQICLTKSMDNMTVRVAETVADARQSIDVGKTS
scaled log2 fold change [1]: 0.158
scaled log2 fold change [2]: -0.0417

MAAAGGARLLRAASAVLGGPAGRWLHHAGSRAGSSGLLRNRGPGGSAEASRSLSVSARARSSSEDKITVHFINRDGETLTTKGKVGDSLLDVVVENNLDIDGFGACEGTLACSTCHLIFEDHIYEKLDAITDEENDMLDLAYGLTDRSRLGCQICLTKSMDNMTVRVCETVADARQSIDVGKTS
scaled log2 fold change [1]: 0.163
scaled log2 fold change [2]: 0.254

MAAAGGARLLRAASAVLGGPAGRWLHHAGSRAGSSGLLRNRGPGGSAEASRSLSVSARARSSSEDKITVHFINRDGETLTTKGKVGDSLLDVVVENNLDIDGFGACEGTLACSTCHLIFEDHIYEKLDAITDEENDMLDLAYGLTDRSRLGCQICLTKSMDNMTVRVDETVADARQSIDVGKTS
scaled log2 fold change [1]: 0.403
scaled log2 fold change [2]: 1.03

MAAAGGARLLRAASAVLGGPAGRWLHHAGSRAGSSGLLRNRGPGGSAEASRSLSVSARARSSSEDKITVHFINRDGETLTTKGKVGDSLLDVVVENNLDIDGFGACEGTLACSTCHLIFEDHIYEKLDAITDEENDMLDLAYGLTDRSRLGCQICLTKSMDNMTVRVEETVADARQSIDVGKTS
scaled log2 fold change [1]: 0.408
scaled log2 fold change [2]: -0.105

MAAAGGARLLRAASAVLGGPAGRWLHHAGSRAGSSGLLRNRGPGGSAEASRSLSVSARARSSSEDKITVHFINRDGETLTTKGKVGDSLLDVVVENNLDIDGFGACEGTLACSTCHLIFEDHIYEKLDAITDEENDMLDLAYGLTDRSRLGCQICLTKSMDNMTVRVFETVADARQSIDVGKTS
scaled log2 fold change [1]: 0.153
scaled log2 fold change [2]: 0.798

MAAAGGARLLRAASAVLGGPAGRWLHHAGSRAGSSGLLRNRGPGGSAEASRSLSVSARARSSSEDKITVHFINRDGETLTTKGKVGDSLLDVVVENNLDIDGFGACEGTLACSTCHLIFEDHIYEKLDAITDEENDMLDLAYGLTDRSRLGCQICLTKSMDNMTVRVHETVADARQSIDVGKTS
scaled log2 fold change [1]: 0.377
scaled log2 fold change [2]: 0.136
